Target: T1, GST-OsARF24 (Oryza sativa (rice), UniProt Q2QQX6 1-841)
T1 sequence: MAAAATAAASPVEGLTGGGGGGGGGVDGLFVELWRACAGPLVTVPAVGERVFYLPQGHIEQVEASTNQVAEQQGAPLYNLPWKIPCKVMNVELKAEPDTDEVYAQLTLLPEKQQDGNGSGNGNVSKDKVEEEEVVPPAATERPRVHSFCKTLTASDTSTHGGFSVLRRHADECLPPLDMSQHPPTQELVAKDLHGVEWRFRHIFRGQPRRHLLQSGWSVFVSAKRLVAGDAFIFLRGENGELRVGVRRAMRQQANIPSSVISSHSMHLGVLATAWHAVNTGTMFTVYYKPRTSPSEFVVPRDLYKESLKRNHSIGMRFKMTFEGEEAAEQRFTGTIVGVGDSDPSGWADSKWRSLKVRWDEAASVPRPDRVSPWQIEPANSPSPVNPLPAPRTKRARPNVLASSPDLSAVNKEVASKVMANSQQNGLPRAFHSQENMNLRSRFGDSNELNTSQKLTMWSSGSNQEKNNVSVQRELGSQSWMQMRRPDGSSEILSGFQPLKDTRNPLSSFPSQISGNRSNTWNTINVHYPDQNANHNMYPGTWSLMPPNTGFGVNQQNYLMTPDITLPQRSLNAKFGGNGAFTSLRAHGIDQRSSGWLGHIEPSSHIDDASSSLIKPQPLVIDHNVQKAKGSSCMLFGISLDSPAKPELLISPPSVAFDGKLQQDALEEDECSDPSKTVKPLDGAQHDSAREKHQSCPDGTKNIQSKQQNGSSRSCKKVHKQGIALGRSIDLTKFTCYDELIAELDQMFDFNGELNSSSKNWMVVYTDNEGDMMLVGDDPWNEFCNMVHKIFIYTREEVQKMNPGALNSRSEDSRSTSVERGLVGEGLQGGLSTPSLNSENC
Experiment: EMSA

B1: ARF probe (OsMAP1/OsMPK3 promoter) (dsDNA)
DNA 1: TCATCGCCTTGCTGTCTCTGCGAATCGAGA
DNA 2: TCTCGATTCGCAGAGACAGCAAGGCGATGA
Q: Does B1 bind?
A: binds
